# Values joined by “and” are separate entries in the source; they are usually repeats but may differ in a detail not shown here. Identical values can stand only once.
# Key:
# [1] = molecular target: OmpC(K281am) with benzoyl phenylalanine (Bpa) at residue 281 (E. coli) (UniProt P06996); assay: SDS-PAGE of unheated and heated samples (heat-sensitive oligomers); OmpC amber mutants synthesized in PURExpress lacking release factor 1 with FluoroTect, tRNATAG-BPA, SurA, Rc LPS and Bam POPC proteoliposomes; 30 min, 30°C; with or without UV
# [2] = molecular target: OmpC(K255am) with benzoyl phenylalanine (Bpa) at residue 255 (E. coli) (UniProt P06996); assay: as above
# [3] = molecular target: the molecule itself; assay: SDS-PAGE of unheated and heated samples (heat-sensitive oligomers), with proteinase K; OmpC synthesized in PURExpress with FluoroTect, SurA, smooth LPS from E. coli O55:B5 (0.5 mg/ml) and Bam DLPC proteoliposomes; 30 min, 37°C
# [4] = molecular target: the molecule itself; assay: SDS-PAGE of unheated and heated samples (heat-sensitive oligomers), with proteinase K; 0.2 μM urea-denatured OmpC S71C-BODIPY-FL added to SurA, Bam proteoliposomes (text: Bam DLPC; legend: Bam DMPC) and Rc LPS in a complete mixture of PURExpress components; 30 min, 37°C
# [5] = molecular target: the molecule itself; assay: SDS-PAGE of unheated samples (oligomers), colloidal blue staining; urea-denatured OmpC folded into 1% DDM-0.4% DDG, 50 mM Tris pH 8.0, 1 mM DTT, 0.1 mM EDTA; 37°C, 24 h
molecule,measurement,setting,value
OmpC(K281am) with benzoyl phenylalanine (Bpa) at residue 281 (from UniProt P06996 22-367) (natural protein),stoichiometry N,[1],3
OmpC(K255am) with benzoyl phenylalanine (Bpa) at residue 255 (from UniProt P06996 22-367) (natural protein),stoichiometry N,[2],3
"E. coli OmpC (wild type), synthesized in vitro without its signal peptide (natural protein, UniProt P06996 22-367, looked up, fluorescent lysine residues (BODIPY-FL at the ε position, from FluoroTect GreenLys) incorporated during synthesis) AEVYNKDGNKLDLYGKVDGLHYFSDNKDVDGDQTYMRLGFKGETQVTDQLTGYGQWEYQIQGNSAENENNSWTRVAFAGLKFQDVGSFDYGRNYGVVYDVTSWTDVLPEFGGDTYGSDNFMQQRGNGFATYRNTDFFGLVDGLNFAVQYQGKNGNPSGEGFTSGVTNNGRDALRQNGDGVGGSITYDYEGFGIGGAISSSKRTDAQNTAAYIGNGDRAETYTGGLKYDANNIYLAAQYTQTYNATRVGSLGWANKAQNFEAVAQYQFDFGLRPSLAYLQSKGKNLGRGYDDEDILKYVDVGATYYFNKNMSTYVDYKINLLDDNQFTRDAGINTDNIVALGLVYQF",stoichiometry N,[3],2 and 3
"Urea-denatured OmpC S71C, fluorescently labeled at residue 71 with BODIPY-FL (natural protein, E. coli, UniProt P06996 22-367, looked up, BODIPY-FL maleimide on the cysteine at 71) AEVYNKDGNKLDLYGKVDGLHYFSDNKDVDGDQTYMRLGFKGETQVTDQLTGYGQWEYQIQGNSAENENNCWTRVAFAGLKFQDVGSFDYGRNYGVVYDVTSWTDVLPEFGGDTYGSDNFMQQRGNGFATYRNTDFFGLVDGLNFAVQYQGKNGNPSGEGFTSGVTNNGRDALRQNGDGVGGSITYDYEGFGIGGAISSSKRTDAQNTAAYIGNGDRAETYTGGLKYDANNIYLAAQYTQTYNATRVGSLGWANKAQNFEAVAQYQFDFGLRPSLAYLQSKGKNLGRGYDDEDILKYVDVGATYYFNKNMSTYVDYKINLLDDNQFTRDAGINTDNIVALGLVYQF",stoichiometry N,[4],2 and 3
"Urea-denatured wild-type OmpC purified from inclusion bodies (natural protein, E. coli, UniProt P06996 22-367, looked up) AEVYNKDGNKLDLYGKVDGLHYFSDNKDVDGDQTYMRLGFKGETQVTDQLTGYGQWEYQIQGNSAENENNSWTRVAFAGLKFQDVGSFDYGRNYGVVYDVTSWTDVLPEFGGDTYGSDNFMQQRGNGFATYRNTDFFGLVDGLNFAVQYQGKNGNPSGEGFTSGVTNNGRDALRQNGDGVGGSITYDYEGFGIGGAISSSKRTDAQNTAAYIGNGDRAETYTGGLKYDANNIYLAAQYTQTYNATRVGSLGWANKAQNFEAVAQYQFDFGLRPSLAYLQSKGKNLGRGYDDEDILKYVDVGATYYFNKNMSTYVDYKINLLDDNQFTRDAGINTDNIVALGLVYQF",stoichiometry N,[5],3
